According to paper PMC8452523 (Cell Reports, 2021):

Target: Spike RBD protein (SARS-CoV-2, UniProt P0DTC2)
Assay: Luminex bead-based competitive binding assay

| Binder | binding result |
| --- | --- |
| REGN10987 (antibody, V domains shown) VH: QVQLVESGGGVVQPGRSLRLSCAASGFTFSNYAMYWVRQAPGKGLEWVAVISYDGSNKYYADSVKGRFTISRDNSKNTLYLQMNSLRTEDTAVYYCASGSDYGDYLLVYWGQGTLVTVSS VL: QSALTQPASVSGSPGQSITISCTGTSSDVGGYNYVSWYQQHPGKAPKLMIYDVSKRPSGVSNRFSGSKSGNTASLTISGLQSEDEADYYCNSLTSISTWVFGGGTKLTVL | binds |
| REGN10933 (antibody, V domains shown) VH: QVQLVESGGGLVKPGGSLRLSCAASGFTFSDYYMSWIRQAPGKGLEWVSYITYSGSTIYYADSVKGRFTISRDNAKSSLYLQMNSLRAEDTAVYYCARDRGTTMVPFDYWGQGTLVTVSS VL: DIQMTQSPSSLSASVGDRVTITCQASQDITNYLNWYQQKPGKAPKLLIYAASNLETGVPSRFSGSGSGTDFTFTISGLQPEDIATYYCQQYDNLPLTFGGGTKVEIK | binds |
| P5C3 human monoclonal antibody (antibody, V domains shown) VH: QMQLVQSGPEVKKPGTSVKVSCKASGFTFTSSAVQWVRQARGQRLEWIGWIVVGSGNTDYAQQFQERVTITRDMSTSTAYMELSSLGSEDTAVYYCAAPNCSGGSCYDGFDLWGQGTMVTVSS VL: EIVLTQSPGTLSLSPGERATLSCRGSQSVRSSYLGWYQQKPGQAPRLLIYGASSRATGIPDRFSGSGSGTDFTLTISRLEPEDFAVYYCQQYGSSPWTFGQGTKVEIK | binds |
